The RNAGym collection of RNA variant scans (doi:10.1073/pnas.2313332121)
This sample holds only a part of the variants without activity.

B1: TPR 5TU (parent)
chain: GGAUCUUCUCGAUCUAACAAAAAAGACAAAUCUGCCACAAAGCUUGAGAGCAUCUUCGGAUGCAGAGGCGGCAGCCUUCGGUGGCGCGAUAGCGCCAACGUUCUCAACUAUGACACGCAAAACGCGUGCUCCGUUGAAUGGAGUUUAUCAUG

Variants of: B1
Assay: polymerase ribozyme fitness, log enrichment relative to wild type (log ratio); higher = more active; in vitro selection for triplet polymerase activity
Summary of the method: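 A heterodimeric triplet polymerase ribozyme had each of its subunits mutagenized by PCR into a library, which was transcribed. One round of in vitro selection, done in triplicate, annealed each library with a biotinylated primer, its partner subunit and triplets, then incubated it frozen at −7 °C before gel excision of extended constructs, streptavidin-bead capture and RT-PCR. Fitness is the logarithm of genotype enrichment relative to wild-type enrichment, based on Illumina sequencing of inputs and outputs and inverse-variance-weighted replicate averages. A base-2 logarithm is used, and genotypes were kept only with ≥10 input reads and ≥1 read per output.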

Row | Variant | polymerase ribozyme fitness (log ratio)
1 | GGAUCUUCUCGAUCUAACAAACAAGACAAAUCUGCCACAACGCUUGAGAACAUCUUCGGAUGCAGAGGCGGCAGCCUUCGGUGGCGCGAUAGCGCCAACGUUCUCAACUAUGACGCGCAAAACGCGUGCUCCGUUGAAUGGAGUUUAUCAUG [A22C A41C G50A A115G] | -3.63
2 | GGAUCUUCUCGAUCUAACAAACAAGACAAAUCUGCCACAAAGCUUGAGAGCUUCUUCGGAUGCAGAGGCGGCAGCCUUCGGCGGCUCGAUAGCGCCGACGUUCUCAACUAUGACACGCAAAACGCGUGCUCCGUUGAAUGGAGUUUAUCAUG [A22C A52U U82C G86U A97G] | -3.83
3 | GGAUCUUCUCGAUCUAACAAACGAGACAAAUCUGCCACAAAGCUUGAGAGCAUCUUCGGAUGCAGAGGCGGCAGCCUUCGGUGGCGCGAUAGGGCCAACGUUCUCAACUAUGACACGCAAAACGCGUGCUCCGUUGAAUGGAGUUUAUUAUG [A22C A23G C93G C149U] | ≤ -4.2
4 | GGAUCUUCUCGAUCUAACAAACAAGACAAAUCUGCCACAAAGCUUGAGAGCGUCUUCGGAUGCAGAGGCGGCAGCCUUCGGUGGCGCGAUAGCGCCAACGUUCUCCACUAUGACACGUAAAACGCGUGCUCCGUUGAAUGGGGUUUAUCAUG [A22C A52G A106C C118U A142G] | -3.06
5 | GGAUCUUCUCGAUCUAACAAACAAGACAAAUCUGCCACAUAGCUUGAGAGCAUUUUCGGAUGCAGAGGCGGCAGCCUUCGGUGGCGCGAUAGCACCAACGUUCUCAACUAUGACACGCAAAACGCGUGCUCCGUUGAAUGGAGUUUAUCAUG [A22C A40U C54U G94A] | -0.982
6 | GGAUCUUCUCGAUCUAACAAACAAGACAAAUUUGCCACAAAGCUUGAGAGCAUCUUCGGAUGCAGAGGCGGCAGCCUUCGGUGGGGCGAUAGCGACAACAUUCUCAACUAUCACACGCAAAACGCGUGCUCCGUUGAAUGGAGUUUAUCAUG [A22C C32U C85G C95A G100A G112C] | ≤ -4.2
7 | GGAUCUUCUCGAUCUAACAAACAAGUCAAACCUGCCCCAAAGCUUGAGAGCAUCUCCGGAUGCAGAGGCGGCCGCCUUCGGUGGCGCGAUCGCGCCAACGUUCUCAACUAUGACACGCAAAACGCGUGCUCCGUUGAAUGGAGUUUAUCAUG [A22C A26U U31C A37C U56C A73C A91C] | ≤ -4.2
8 | GGAUCUUCUCGAUCUAACAAACAUGACAAAUCUGCCACAAAGCUUGAGACCAUCUUCAGAUGCAGAGGCGGCAGCCUUCGGUGGCGCGAUAGUUCCAACGUUCUCAACUAUGACACGCAAAACGCGUGCUCCGUUGAAUGGAGUUUAUCAUG [A22C A24U G50C G58A C93U G94U] | ≤ -4.2
9 | GGAUCUUCUCGAUCUAACAAACAAGACAAAUCUGCCACAAAUCUUGAGGGUAUCUUCGGAUGCAGAGGCGGCAGCCUUCGGUGGCGCGAUAACGCCAACGUUCUCAACUAUGACACGCAAAACGCGUGCGCCGUUGAAUGGAGUUUAUCAUG [A22C G42U A49G C51U G92A U130G] | ≤ -4.2
10 | GGAUCUUCUCGAUCUAACAAACAAGAUAAAUCUGCCACAAAGCUUGAGAGCAUUUUCGGAUGCAGAGGCGGCAGCCUUCGGUGGGGCGAUUGCGCCAACGUUCUCAACUAUAACACGCUAAACGCGUGCUCCGUUGAAUGGAGUUUCUCCUG [A22C C27U C54U C85G A91U G112A A119U A147C A150C] | ≤ -4.2
11 | GGAUCUUCUCGAUCUAACAAACAAGGCAAUUCUGCCACAAAGCUGGAGAGCAUCUUCGGAUGCAGAGGCGGCACCCUUCGGUGGCGCGAUAGCGCCAACGUUGUCAACUAUGACACGCAAAACGCGUGCUCCGUUGAAUUGAGUUUAUCAUG [A22C A26G A30U U45G G74C C103G G140U] | ≤ -4.2
12 | GGAUCUUCUCGAUCUAACAAACAAGACAAAUCUGCCACAAACCUUGAGAGCAUCUUCGGAUGCAGAGGGGGCAGCCUUCGGUGGCGCGAUUGCGCCAACGUUCUCAACUAUGACACGCAAAACGCGUGCUCCGUUGAAUGGAGUUUAUCAUG [A22C G42C C69G A91U] | ≤ -4.2
13 | GGAUCUUCUCGAUCUAACAAACAAGACAAAUCUGGCACAAAGCAUGAGAGCAUCUUCGGGUGCAGAGGCGGCAGCAUUCGGUGGCGCGAUAGCGUCAACGUUCUCAACUAUGACACGCAAAACGCGUACUCCGUUGAAUGGAGUUUAUCCGG [A22C C35G U44A A60G C76A C95U G128A A150C U151G] | ≤ -4.2
14 | GGAUCUUCUCGAUCUAACAAACAAGACAAAUCUGCCACAAAGCUUGAGAGCAUCUUCGGAUGCAGAGGCGGCAGCCUUCGGUGGAGCGAUAGCGCCAACGUUCUCAACUAUGACACGCAAAACGCGUGCUCCGUUGGAUGGAGUUUAUCAUG [A22C C85A A137G] | -2.49
15 | GGAUCUUCUCGAUCUAACAAACAAGAGAAAUCUGCCACAAAGCUUGAGAGCAUCUUCGGAUGCAGAGGCGGCAGCCUUCGGUGGCGCGAUAGCGCCAAUGUUCUCUACUAUGACACGCAAAACGCGUGCUCCGUUGAAUUGAGUUUGUCAUG [A22C C27G C99U A106U G140U A147G] | ≤ -4.2
16 | GGAUCUUCUCGAUCUAACAAACAAGACAAAUCUGCCACAAAGCUUGAGAGCAUCUUCGGGUGCAGAGGCGGCAGCCUUCGGUGGCGUGAUAGCGCCAACGUUCUCAACUAUGACACGCAAAACGCGUGCUCCGUUGAAUGGAGUUUAUCAUG [A22C A60G C87U] | 0.179
17 | GGAUCUUCUCGAUCUAACAAACAAGACAUAUCUGCCACAAGGCUUGAGACCAUCUUCGGAUGCAGAGGCGGCAGCCAUCGGUGGUGCGAUAGGGCCAACGUUCUCAACUAUGACACGCAAAACGCGUGCUCCGUUGAAUGCAGUUUAUCAUG [A22C A29U A41G G50C U77A C85U C93G G141C] | ≤ -4.2
18 | GGAUCUUCUCGAUCUAACAAACAAGACAAAUCUGCCACAAAGCUUGAGAGCGUCUUCGGAUGCAGAGGCGACAGCCUUGGGUGGCGGGAUAGCGCCAAGGUUCUCAACUAUGAGACGCAAAACGCGGGAUCCGUUGAAUGGCGUUUAUCAUG [A22C A52G G71A C79G C87G C99G C114G U127G C129A A142C] | ≤ -4.2
19 | GGAUCUUCUCGAUCUAACAAACAAGACAAAUCUGCCACAAAGCUUGAGAGAAUCUUCGGAUGCAGAGGCGGCAGCCUUCGGUGGCGCGAUAGGGCCACCGUUCUCAACUAUGACAUGCAAAACGCGUGCUCCGUCGAAUGGAGUUUAUCAUG [A22C C51A C93G A98C C116U U135C] | ≤ -4.2
